The text below walks through data of article PMC4690471 (Cell, 2015).

The labels stand for the following.
B1: zebrafish RAG1 (271–1031) (domain or fragment, UniProt O13033 271-1031, looked up)
chain: RCQRDHLSTKLIPTEVPADLIRAVTCQVCDHLLSDPVQSPCRHLFCRLCIIRYTHALGPNCPTCNQHLNPSHLIKPAKFFLATLSSLPLLCPSEECSDWVRLDSFREHCLNHYREKESQEEQTPSEQNLDGYLPVNKGGRPRQHLLSLTRRAQKHRLRDLKNQVKTFAEKEEGGDVKSVCLTLFLLALRAGNEHKQADELEAMMQGRGFGLHPAVCLAIRVNTFLSCSQYHKMYRTVKATSGRQIFQPLHTLRNAEKELLPGFHQFEWQPALKNVSTSWDVGIIDGLSGWTVSVDDVPADTISRRFRYDVALVSALKDLEEDIMEGLRERALDDSMCTSGFTVVVKESCDGMGDVSEKHGSGPAVPEKAVRFSFTIMSISIRLEGEDDGITIFQEQKPNSELSCRPLCLMFVDESDHETLTAILGPVVAERKAMMESRLIISVGGLLRSFRFFFRGTGYDEKMVREMEGLEASGSTYICTLCDSTRAEASQNMVLHSITRSHDENLERYEIWRKNPFSESADELRDRVKGVSAKPFMETQPTLDALHCDIGNATEFYKIFQDEIGEVYQKPNPSREERRRWRSTLDKQLRKKMKLKPVMRMNGNYARRLMTREAVEAVCELVPSEERREALLKLMDLYLQMKPVWRSTCPSRDCPDQLCQYSYNSQQFADLLSSMFKYRYDGKITNYLHKTLAHVPEIVERDGSIGAWASEGNESGNKLFRRFRKMNARQSKTFELEDILKHHWLYTSKYLQKFMEAHKNS
B2: full-length zebrafish RAG2 (natural protein, UniProt O13034 1-530, looked up)
chain: MSLQPLTAVNCGSLVQPGFSLLDLEGDVYLFGQKGWPKRSCPTGIFGVRIKKGELKLRAISFSNNSSYLPPLRCPAIAHFEAQDGKPECYLIHGGRTPNNELSSSLYMLSVDSRGCNRKVTLRCEEKELVGDVPSARYGHTLSVINSRGKTACVLFGGRSYMPPTERTTQNWNSVGDCPPQVYLIDLEFGCCTAHTLPELTDGQSFHVALARQDCVYFLGGHILSSDCRPSRLIRLHVELLLGSPVLTCTILHEGLTITSAIASPIGYHEYIIFGGYQSETQKRMECTYVGLDDVGVHMESREPPQWTSEISHSRTWFGGSLGKGTALVAIPSEGNPTPPEAYHFYQVSFQKEQDGEATAQGCSQESTDFEDSAPLEDSEELYFGREPHELEYSSDVEGDTYNEEDEEDESQTGYWIKCCLSCQVDPNIWEPYYSTELTRPAMIFCSRGEGGHWVHAQCMELPESLLLQLSQDNSKYFCLDHGGLPKQEMTPPKQMLPVKRVPMKMTHRKAPVSLKMTPAKKTFLRRLFD

The data set “cryo-EM structure” deals with the molecule itself. In words: cryo-EM structure.
For data set [1], the target named is B1. The data set can be described thus: cryo-EM structure.

What is called stoichiometry N is the number of molecules, sites or subunits per partner or assembly. On to B1, for which, in the data set “cryo-EM structure”, the “stoichiometry N” value worked out at 2.

B2: the binding result in data set [1] is listed as “binds”.
